Data reported in publication PMC10249358, “Elucidation of Short Linear Motif-Based Interactions of the FERM Domains of Ezrin, Radixin, Moesin, and Merlin” (Biochemistry, 2023).

B1: KIRREL3 … (peptide)
chain: TNGAYSVNTFKEHHST
B2: ZNF622 … (peptide)
chain: LEFADFYDFRSSAPDH
B3: ZNF622 … (peptide)
chain: LEAADFYDFRSSYPDH
B4: ZNF622 … (peptide)
chain: LEFADAYDFRSSYPDH
B5: ZNF622 … (peptide)
chain: LEFADFYAFRSSYPDH
B6: KIRREL3 … (peptide)
chain: TNGYYSVNTFKEHHST

Target: moesin FERM domain, P26038
Assay: FP
Conditions: modification not given

moesin FERM domain, P26038, sequence (P26038 2-295): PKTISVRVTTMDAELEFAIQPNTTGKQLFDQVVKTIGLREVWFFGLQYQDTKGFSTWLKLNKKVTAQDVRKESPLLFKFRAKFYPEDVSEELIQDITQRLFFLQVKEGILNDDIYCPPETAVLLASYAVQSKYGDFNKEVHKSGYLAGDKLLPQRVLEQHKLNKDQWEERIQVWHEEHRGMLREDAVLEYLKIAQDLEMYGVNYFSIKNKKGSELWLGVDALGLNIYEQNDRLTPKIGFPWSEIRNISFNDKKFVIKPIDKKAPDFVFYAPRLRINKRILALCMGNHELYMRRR

Kd [nM]	Binder
110	B1
2800	B2
2300	B3
85000	B4
50000	B5
100	B6
